In patent publication US20200048328A1 (Bristol-Myers Squibb, published 2020):
Like-named read-outs stand apart in the source and are kept apart here.

Key:
[1] = target: T1, human PCSK9 (human, UniProt Q8NBP7 31-692); assay: BLI (Octet), biotinylated PCSK9 on tips, no HSA
T1 construct: also called hPCSK9; huPCSK9

[2] = target: T2, human serum albumin (human, UniProt P02768 25-609); assay: SPR, albumin immobilized, acetate pH 5.5
T2 construct: immobilized on chips or coated on plates elsewhere; also called HSA; HuSA

[3] = target: T3, mouse serum albumin (mouse, UniProt P07724 25-608); assay: SPR, albumin immobilized, acetate pH 5.5
T3 construct: also called MSA; MuSA

[4] = target: T4, rhesus serum albumin (rhesus, UniProt Q28522 17-600); assay: SPR, albumin immobilized, acetate pH 5.5
T4 construct: also called RhSA; Rh-SA

[5] = target: T2, human serum albumin; assay: Albumin KD (37° C.), summary table; human serum albumin (first value in the cell)
[6] = target: T2, human serum albumin; assay: direct binding ELISA, albumin coated
[7] = target: T3, mouse serum albumin; assay: direct binding ELISA, albumin coated
[8] = target: T4, rhesus serum albumin; assay: direct binding ELISA, albumin coated
[9] = target: T1, human PCSK9; assay: PCSK9:EGFA FRET human, summary table
[10] = target: T1, human PCSK9; assay: BLI (Octet), biotinylated PCSK9 on tips, tandem in complex with excess HSA
[11] = target: T2, human serum albumin; assay: SPR, albumin immobilized, acetate pH 7.4
[12] = target: T3, mouse serum albumin; assay: SPR, albumin immobilized, acetate pH 7.4
[13] = target: T4, rhesus serum albumin; assay: SPR, albumin immobilized, acetate pH 7.4
[14] = target: T5, cynomolgus serum albumin (cynomolgus, UniProt A2V9Z4 25-608); assay: Albumin KD (37° C.), summary table; cynomolgus serum albumin (second value in the cell)
T5 construct: also called cynoSA; CySA

[15] = target: T1, human PCSK9; assay: PCSK9:EGFA FRET 2, competition
[16] = target: T6, rat serum albumin (rat, UniProt P02770 25-608); assay: Albumin KD (37° C.), summary table; rat serum albumin (fourth value of the list)
T6 construct: also called Rat SA; RSA

[17] = target: T1, human PCSK9; assay: PCSK9:EGFA FRET 1, competition
[18] = target: T3, mouse serum albumin; assay: Albumin KD (37° C.), summary table; mouse serum albumin (third value of the list)
[19] = target: T1, human PCSK9; assay: PCSK9:LDLR FRET, competition
[20] = target: T2, human serum albumin; assay: SPR, albumin immobilized, HBSP pH 7.4
[21] = target: T3, mouse serum albumin; assay: SPR, albumin immobilized, HBSP pH 7.4
[22] = target: T4, rhesus serum albumin; assay: SPR, albumin immobilized, HBSP pH 7.4
[23] = target: T2, human serum albumin; assay: SPR, albumin immobilized
[24] = target: T3, mouse serum albumin; assay: SPR, albumin immobilized
[25] = target: T4, rhesus serum albumin; assay: SPR, albumin immobilized
[26] = target: T2, human serum albumin; assay: hFcRn:HSA competition AlphaScreen, pH 5.5
[27] = target: T2, human serum albumin; assay: SPR, albumin immobilized, acetate pH 5.5; remark: listed apart in the source
[28] = target: T3, mouse serum albumin; assay: SPR, albumin immobilized, acetate pH 5.5; remark: listed apart in the source
[29] = target: T4, rhesus serum albumin; assay: SPR, albumin immobilized, acetate pH 5.5; remark: listed apart in the source
[30] = target: T7, domain I of HSA (human, UniProt P02768 25-221, limits assumed); assay: SPR on HSA domains
T7 construct: domain: I; also called HSA domain I

[31] = target: T8, domain III of HSA (human, UniProt P02768 405-609, limits assumed); assay: SPR on HSA domains
T8 construct: domain: III; also called HuSA domainIII

[32] = target: T3, mouse serum albumin; assay: SPR, albumin immobilized; remark: listed apart in the source
[33] = target: T2, human serum albumin; assay: SPR, albumin immobilized, HBS-P pH 7.4
[34] = target: T3, mouse serum albumin; assay: SPR, albumin immobilized, HBS-P pH 7.4
[35] = target: T4, rhesus serum albumin; assay: SPR, albumin immobilized, HBS-P pH 7.4
[36] = target: T2, human serum albumin; assay: direct binding ELISA on coated HSA, mono-Adnectin (column HSA EC50 (nM))
[37] = target: T6, rat serum albumin; assay: SPR, albumin immobilized
[38] = target: T2, human serum albumin; assay: SPR, albumin immobilized; remark: listed apart in the source
[39] = target: T3, mouse serum albumin; assay: SPR, albumin immobilized; remark: listed apart in the source
[40] = target: T5, cynomolgus serum albumin; assay: SPR, albumin immobilized
[41] = target: T4, rhesus serum albumin; assay: SPR, albumin immobilized; remark: listed apart in the source
[42] = target: T9, cynomolgus PCSK9 (cynomolgus, UniProt A0A7N9D9N8 150-747); assay: Octet Red, 37° C., core
T9 construct: also called cyno PCSK9

[43] = target: T1, human PCSK9; assay: Octet Red, 37° C., core
[44] = target: T6, rat serum albumin; assay: SPR, albumin immobilized; remark: listed apart in the source
[45] = target: T2, human serum albumin; assay: SPR, albumin immobilized; remark: listed apart in the source
[46] = target: T3, mouse serum albumin; assay: SPR, albumin immobilized; remark: listed apart in the source
[47] = target: T5, cynomolgus serum albumin; assay: SPR, albumin immobilized; remark: listed apart in the source
[48] = target: T4, rhesus serum albumin; assay: SPR, albumin immobilized; remark: listed apart in the source

B1: PCSK9-PKE2 tandem Adnectin w/ his tag 4472_C06 (designed binder)
chain: MGVSDVPRDLEVVAATPTSLLISWDAPAEGYGYYRITYGETGGNSPVQEFTVPVSKGTATISGLKPGVDYTITVYAVEFDFPGAGYYHRPISINYRTEPSTPPTPSPSTPPTPSPSGVSDVPRDLEVVAATPTSLLISWDAPAVTVRYYRITYGREVQKYSDLGPLYIYQEFTVPGSKSTATISGLKPGVDYTITVYAVTGSGESPASSKPISINYRTEHHHHHH
notes: also called ATI-1574; ADX_4472_C06
Which results are given for B1?
Kd [1]: 0.515 nM; koff [1]: 0.000168 s⁻¹; kon [1]: 336000 M⁻¹ s⁻¹; Kd [2]: 38.2 nM; koff [2]: 0.000466 s⁻¹; kon [2]: 12200 M⁻¹ s⁻¹; Kd [3]: 123 nM; koff [3]: 0.00161 s⁻¹; kon [3]: 13100 M⁻¹ s⁻¹; Kd [4]: 97.5 nM; koff [4]: 0.000815 s⁻¹; kon [4]: 8360 M⁻¹ s⁻¹; Kd [5]: 57 nM; EC50 [6]: 184 nM; EC50 [7]: 15.6 nM; EC50 [8]: 131 nM; IC50 [9]: 1.5 nM; Kd [10]: 1.55 nM; koff [10]: 0.000305 s⁻¹; kon [10]: 197000 M⁻¹ s⁻¹; Kd [11]: 74.7 nM; koff [11]: 0.000325 s⁻¹; kon [11]: 4350 M⁻¹ s⁻¹; Kd [12]: 34.8 nM; koff [12]: 0.000375 s⁻¹; kon [12]: 10800 M⁻¹ s⁻¹; Kd [13]: 80.7 nM; koff [13]: 0.000364 s⁻¹; kon [13]: 4510 M⁻¹ s⁻¹; Kd [14]: 51 nM; IC50 [15]: 3.09 nM; Kd [16]: 200 nM; IC50 [17]: 9.18 nM; Kd [18]: 43 nM; IC50 [19]: 1.4 nM; Kd [20]: 72 nM; koff [20]: 0.000258 s⁻¹; kon [20]: 3580 M⁻¹ s⁻¹; Kd [21]: 28.2 nM; koff [21]: 0.000336 s⁻¹; kon [21]: 11900 M⁻¹ s⁻¹; Kd [22]: 78.9 nM; koff [22]: 0.000305 s⁻¹; kon [22]: 3860 M⁻¹ s⁻¹; Kd [23]: 73.7 nM; koff [23]: 0.000289 s⁻¹; kon [23]: 3920 M⁻¹ s⁻¹; Kd [24]: 26.1 nM; koff [24]: 0.000301 s⁻¹; kon [24]: 11500 M⁻¹ s⁻¹; Kd [25]: 77 nM; koff [25]: 0.000337 s⁻¹; kon [25]: 4380 M⁻¹ s⁻¹

B2: PKE2 Adnectin 2270_C01 (designed binder)
chain: MASTSGVPRDLEVVAATPTSLLISWDAPAVTVRYYRITYGWQVQMYSDWGPLYIYKEFTVPGSKSTATISGLKPGVDYTITVYAVTGSGESPASSKPISINYRTEGDKPSQHHHHHH
notes: 10Fn3 domain with modified CD loop; the entry includes the His6 tail
B2 was tested. Which IC50 [26] did it give?
The IC50 was 37 nM.

And the Kd [27]?
Its Kd is 8.82 nM.

And the koff [27]?
The koff was 0.000898 s⁻¹.

What about the kon [27] of the same binder?
Its kon is 102000 M⁻¹ s⁻¹.

And the Kd [28]?
The Kd was ~192 nM.

And the koff [28]?
The koff was 0.0146 s⁻¹.

And the kon [28]?
The kon was 75900 M⁻¹ s⁻¹.

What about the Kd [29] of the same binder?
Its Kd is 17.6 nM.

What about the koff [29] of the same binder?
Its koff is 0.00105 s⁻¹.

And the kon [29]?
Its kon is 59600 M⁻¹ s⁻¹.

Does B2 bind [30]?
Result: no binding

Does B2 bind [31]?
Result: no binding

And the “fold weaker affinity than for human or rhesus albumin” value [32]?
Its value is ~10 fold.

And the Kd [33]?
The Kd was 5.58 nM.

What about the koff [33] of the same binder?
The koff was 0.000368 s⁻¹.

And the kon [33]?
Its kon is 65900 M⁻¹ s⁻¹.

And the Kd [34]?
Its Kd is 67.7 nM.

What about the koff [34] of the same binder?
The koff was 0.00909 s⁻¹.

What about the kon [34] of the same binder?
The kon was 134000 M⁻¹ s⁻¹.

And the Kd [35]?
The Kd was 6.98 nM.

What about the koff [35] of the same binder?
The koff was 0.000577 s⁻¹.

And the kon [35]?
Its kon is 82700 M⁻¹ s⁻¹.

B3: PKE2 Adnectin 2630_D02 (designed binder)
chain: MGVSDVPRDLEVVAATPTSLLISWDAPAVTVRYYRITYGREVQKYSDWGPLYIYNEFTVPGSKSTATISGLKPGVDYTITVYAVTGSGESPASSKPISINYRTEIDKPSQHHHHHH
notes: as for B2
For B3, which IC50 [26] is on record?
The IC50 was 28.7 nM.

What about the EC50 [36] of the same binder?
Its EC50 is 9 nM.

And the Kd [37]?
Its Kd is 200 nM.

And the koff [37]?
The koff was 0.0299 s⁻¹.

And the kon [37]?
The kon was 150000 M⁻¹ s⁻¹.

And the Kd [38]?
Its Kd is 1 nM.

What about the koff [38] of the same binder?
Its koff is 0.000162 s⁻¹.

And the kon [38]?
Its kon is 167000 M⁻¹ s⁻¹.

What about the Kd [39] of the same binder?
Its Kd is 13.6 nM.

What about the koff [39] of the same binder?
The koff was 0.0092 s⁻¹.

What about the kon [39] of the same binder?
Its kon is 678000 M⁻¹ s⁻¹.

And the Kd [40]?
Its Kd is 1.6 nM.

What about the koff [40] of the same binder?
The koff was 0.000335 s⁻¹.

What about the kon [40] of the same binder?
Its kon is 208000 M⁻¹ s⁻¹.

And the Kd [41]?
The Kd was 1.8 nM.

And the koff [41]?
Its koff is 0.000362 s⁻¹.

And the kon [41]?
The kon was 207000 M⁻¹ s⁻¹.

Does B3 bind [30]?
Result: no binding

Does B3 bind [31]?
Result: no binding

B4: PCSK9 Adnectin 2382_D09 (designed binder)
chain: MGVSDVPRDLEVVAATPTSLLISWDAPAEGYGYYRITYGETGGNSPVQEFTVPVSKGTATISGLKPGVDYTITVYAVEFDFPGAGYYHRPISINYRT
B4 was tested. Which IC50 [15] did it give?
The IC50 was 10.6 nM.

And the IC50 [17]?
The IC50 was 19.7 nM.

What about the Kd [42] of the same binder?
Its Kd is 39 nM.

And the Kd [43]?
The Kd was 0.14 nM.

What about the IC50 [19] of the same binder?
The IC50 was 2.3 nM.

B5: PCSK9-PKE2 tandem Adnectin w/o his tag 5190_E01 (designed binder)
chain: MGVSDVPRDLEVVAATPTSLLISWDAPAEGYGYYRITYGETGGNSPVQEFTVPVSKGTATISGLKPGVDYTITVYAVEFDFPGAGYYHRPISINYRTEPSTPPTPSPSTPPTPSPSGVSDVPRDLEVVAATPTSLLISWDAPAVTVRYYRITYGREVQKYSDLGPLYIYQEFTVPGSKSTATISGLKPGVDYTITVYAVTGSGESPASSKPISINYRTP
notes: also called ATI-1676; 4472_C06 tandem Adnectin without a 6X histidine tail
How did the Kd [44] turn out when B5 was run?
The Kd was 200 nM.

And the koff [44]?
The koff was 0.00147 s⁻¹.

What about the kon [44] of the same binder?
Its kon is 7350 M⁻¹ s⁻¹.

What about the Kd [45] of the same binder?
Its Kd is 57.2 nM.

What about the koff [45] of the same binder?
The koff was 0.000272 s⁻¹.

What about the kon [45] of the same binder?
The kon was 4790 M⁻¹ s⁻¹.

And the Kd [46]?
Its Kd is 43.3 nM.

What about the koff [46] of the same binder?
Its koff is 0.000723 s⁻¹.

What about the kon [46] of the same binder?
Its kon is 16700 M⁻¹ s⁻¹.

What about the Kd [47] of the same binder?
The Kd was 50.5 nM.

And the koff [47]?
The koff was 0.000326 s⁻¹.

What about the kon [47] of the same binder?
The kon was 6440 M⁻¹ s⁻¹.

What about the Kd [48] of the same binder?
Its Kd is 53.8 nM.

And the koff [48]?
The koff was 0.000351 s⁻¹.

What about the kon [48] of the same binder?
The kon was 6520 M⁻¹ s⁻¹.
